The values that follow come from patent publication US20260055186A1 (REPERTOIRE IMMUNE MEDICINES, published 2026).

The target in experiment [1] is T1, human CD8 on human T cells (human, UniProt P01732 22-235).
T1 construct: whole, on cells; the antibodies were raised against human CD8 alpha; also called CD8 on human CD8+ T cells; hCD8
Nature of the experiment: flow cytometry, human CD8+ T cells, antibody at 0.2 nM, anti-human IgG detection (MFI AF647). As to the method: (§1) The 24 humanized 02A01-derived anti-CD8 antibodies (excluding 02A01-VK3(D30E/N35Q)) were screened for their ability to bind human CD8 by evaluating binding to CD8+ T cells. The non-humanized parent (“02-Parent”) and the non-humanized parent comprising a heavy chain M39L liability mutation (“02-Parent-VH-M39L”) were used as controls. […] Cells were washed with 1×phosphate buffered saline (PBS) containing 1 mg/mL bovine serum albumin (PBS/BSA) and then stained with a 1:100 dilution of DyLight650-conjugated anti-human IgG H+L polyclonal antibody (ThermoFisher cat. no. Sa5-10129) in PBS/BSA. Following a 20-30 min incubation at 4° C., the cells were washed once with PBS/BSA, and then resuspended in PBS/BSA for analysis on a FACSCelesta using Diva software (BD Biosciences). The resulting data were analyzed using FlowJo. Data were quantified and reported as Max fluorescence intensity (MFI) of human IgG-Fc. […] Complete replacement of the HCDR1 (antibodies comprising VH5) eliminated binding to the CD8+ T cells.

In experiment [2] the target is T1, human CD8 on human T cells. The experiment in a line: flow cytometry on human CD8+ T cells, titration. As to the method:
(§2) The 16 above-referenced humanized 03A01-derived anti-CD8 antibodies were screened for their ability to bind human CD8 by evaluating binding to CD8⁺ T cells. The non-humanized parent (“03-Parent”) and the non-humanized parent comprising a heavy chain D64E liability mutation (“03-Parent-VH-D64E”) were used as controls. […] Cells were washed with 1×phosphate buffered saline (PBS) containing 1 mg/mL bovine serum albumin (PBS/BSA) and then stained with a 1:100 dilution of DyLight650-conjugated anti-human IgG H+L polyclonal antibody (ThermoFisher cat. no. Sa5-10129) in PBS/BSA. Following a 20-30 min incubation at 4° C., the cells were washed once with PBS/BSA, and then resuspended in PBS/BSA for analysis on a FACSCelesta using Diva software (BD Biosciences). The resulting data were analyzed using FlowJo. Data were quantified and reported as Max fluorescence intensity (MFI) of human IgG-Fc. […] Complete replacement of the LCDR1 (antibodies comprising VK4) eliminated binding to the CD8⁺ T cells.
(§3) The binding affinities of five of the above-referenced humanized anti-CD8 antibodies to human CD8 were determined by evaluating binding to CD8 human T cells using the method described above. Binding to human CD8+ T cells was tested at 7 serial 5-fold dilutions of each humanized 03A01 variant (from 50 nM to 3.2 pM). The resulting data were analyzed using FlowJo.

The target in experiment [3] is T1, human CD8 on human T cells. Nature of the experiment: flow cytometry on human CD3+ T cells, apparent KD, 4PL fit. As to the method:
(§4) The amino acid sequences of the resulting murine anti-CD8 antibodies 02A01, 03A01, 04D08, 05F10, and 11F05 are provided in Tables 1-3 herein above. These antibodies were recombinantly produced. Their binding affinity to CD8 expressed on the cell surface was measured by flow cytometry, and their respective binding affinities are reported in Table 8 and Table 9. Briefly, human or cynomolgus monkey CD3⁺ T cells were incubated with […] of anti-CD8 antibodies (from 250 nM to […]) for 30 minutes. Following the incubation, unbound antibodies were washed away, and the bound antibodies were detected with a AlexaFluor-647-labeled anti-human Fc detection antibody. The median fluorescence intensity of AlexaFluor-647 on the live cells was used to evaluate anti-CD8 antibody levels on the cell surface. Binding affinity (KD) values for anti-CD8 antibody T cell binding were determined with GraphPad Prism 7.0 using 4-Parameter logistic regression.

The target in experiment [4] is T1, human CD8 on human T cells. The experiment in a line: flow cytometry on human CD8+ T cells, titration, apparent KD. As to the method: as §2, §3
A general note: In flow cytometry, cells or beads pass a laser one at a time.

In experiment [5] the target is T2, cynomolgus monkey CD8 on cynomolgus cells (cynomolgus monkey).
T2 construct: whole, on cells; also called cynomolgus CD8
The experiment in a line: flow cytometry on cynomolgus CD3+ T cells, apparent KD, 4PL fit. As to the method:
as §4

For experiment [6], the target named is T1, human CD8 on human T cells. The experiment in a line: flow cytometry, human CD8+ T cells, antibody at 5 nM, anti-human IgG detection (MFI AF647). As to the method: as §2
Experiment [7] concerns the target T1, human CD8 on human T cells. The experiment in a line: flow cytometry on human CD8+ T cells, titration. As to the method:
as §1
(§5) Binding to human CD8+ T cells was tested at 7 serial 5-fold dilutions of each tested humanized 02A01 variant (from 50 nM to 3.2 pM). The resulting data were analyzed using FlowJo.
This is another data set of the same source.

In experiment [8] the target is T3, human CD8α/β (human, UniProt P01732 22-182; P10966 22-170).
T3 construct: Soluble heterodimer used in SPR and in the Carterra binning (there printed only as CD8α/β); also called hCD8α/β
T3 sequence (P01732 22-182, chain 1 of 2): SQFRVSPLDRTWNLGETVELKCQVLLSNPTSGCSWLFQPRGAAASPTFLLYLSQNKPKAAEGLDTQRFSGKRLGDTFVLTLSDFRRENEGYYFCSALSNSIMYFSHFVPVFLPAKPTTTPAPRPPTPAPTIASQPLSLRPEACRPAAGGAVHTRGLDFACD
T3 sequence (P10966 22-170, chain 2 of 2): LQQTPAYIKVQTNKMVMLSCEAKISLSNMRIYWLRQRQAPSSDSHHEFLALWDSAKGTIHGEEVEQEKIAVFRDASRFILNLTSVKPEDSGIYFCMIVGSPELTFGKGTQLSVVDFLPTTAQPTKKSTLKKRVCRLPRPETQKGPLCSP
The experiment in a line: SPR, antibody captured on Protein A chip, hCD8α/β as analyte. As to the method: (§6) The binding affinities of six of the humanized anti-CD8 antibodies to human CD8 were also determined by surface plasmon resonance (SPR). Briefly, equilibrium dissociation constants for human CD8α/β were determined using a real-time SPR biosensor using a Protein A Sensor Chip (Cytiva) to capture purified anti-CD8 monoclonal antibodies at a concentration of 0.5 nM. SPR binding studies were performed in a buffer composed of Phosphate buffered saline, pH 7.2 containing 0.05% v/v Surfactant P20 (PBS-P20 buffer). Different concentrations of hCD8α/β prepared in PBS-P20 running buffer (ranging from 500 nM to 7.8 nM, 2-fold dilutions) were injected over the anti-CD8 monoclonal antibody captured surface. Association of hCD8α/β to the captured monoclonal antibody was monitored for 400 seconds and the dissociation of hCD8α/β in PBS-P20 running buffer was monitored for 600 sec. All of the binding kinetics experiments were performed at 25° C. Kinetic association (kₐ) and dissociation (kd) rate constants were determined by fitting the real-time sensorgrams to a 1:1 binding model using Scrubber 2.0c curve fitting software.
Background: Surface plasmon resonance follows binding to a sensor surface in real time, without labels.

The target of experiment [9] is T1, human CD8 on human T cells. Nature of the experiment: flow cytometry on human CD8+ T cells, titration, apparent KD. As to the method: as §1, §5
The source holds these as a separate data set.

The target in experiment [10] is T3, human CD8α/β. The experiment in a line: SPR, antibody captured on Protein A chip, hCD8α/β as analyte, 1:1 fit. As to the method: as §6

Numbering of substitutions follows the chain as printed. Where two headings read alike, the source gives them in different places.

T1 sequence (P01732 22-235): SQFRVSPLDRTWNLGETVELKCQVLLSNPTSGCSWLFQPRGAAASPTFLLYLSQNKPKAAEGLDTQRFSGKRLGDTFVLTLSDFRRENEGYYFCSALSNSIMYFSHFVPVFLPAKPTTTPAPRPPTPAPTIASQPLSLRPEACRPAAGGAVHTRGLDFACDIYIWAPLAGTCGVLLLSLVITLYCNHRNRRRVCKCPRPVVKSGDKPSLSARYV

B1: humanized 02A01-VH5-VK1 (antibody, human IgG1, V domains shown)
VH: EVQLVQSGAEVKKPGATLKISCKASGYTFTDYYMHWVQQAPGKGLEWIGLVNPNNGGNIYNQNFKGRATLTVDTSTSTAYMELSSLRSEDTSVYYCGRVPLYTSHGMDYWGQGTLVTVSS
VL: EIVLTQSPATLSVSPGERATISCRASESVDSYDINSMHWYQQKPGQPPRLLIYRASHLQSGIPARFSGSGSRTDFTLTISSVEPEDFATYYCQQSNEDPLTFGQGTKLEIK
notes: human IgG1 format; VH5 has the HCDR1 of the top human germline hit
Regarding B1, the binding result in [1] was “no binding (tested: 0.2 nM)”.

B2: humanized 02A01-VH5-VK3 (antibody, human IgG1, V domains shown)
VH: B1 VH
VL: B1 VL with V13L, P47A, V82L
notes: as for B1
Regarding B2, the binding result in experiment [1] is on record as “no binding (tested: 0.2 nM)”.

B3: humanized 02A01-VH5-VK2 (antibody, human IgG1, V domains shown)
VH: B1 VH
VL: B1 VL with P47A
notes: as for B1
Take B3: the binding result in experiment [1] is “no binding (tested: 0.2 nM)”.

B4: Murine 03A01 (antibody, V domains shown)
VH: DVQFQESGPGLVKPSQSLSLTCTVTGYSITSDFAWNWIRQFPGNELEWMGYISYSGDTNYNPSLRSRISITRDTSKNQFFLQLDSVTTEDTATYYCTIRGYYTDSAFVFWGQGTLVTVSA
VL: DIQMTQSSSYLSVSLGGRVTITCKASDHINNWLAWYQQKPGNAPRLLISGATSLETGVPSRFTGSGSGLDYTLSITSLQTEDVATYYCQQYWNSPFTFGSGTKLEIK
notes: Recombinantly produced IgG; also called 03-parental; 03-Parent
B4: the “Fold Change to Parental Apparent KD” value in experiment [2] amounted to 1 fold. Moreover, the Kd in [3] came to 0.86 nM; in experiment [4], 0.926 nM; in [5], 1.77 nM.

B5: humanized 03A01-VH1-VK4 (antibody, human IgG1, V domains shown)
VH: EVQFQESGPGLVKPSQTLSLTCTVTGYSITSDFAWNWIRQPPGKELEWMGYISYSGDTNYNPSLRSRITISRDTSKNQFSLKLSSVTAADTATYYCTIRGYYTDSAFVFWGQGTLVTVSS
VL: DIQMTQSPSTLSVSVGDRVTITCRASQSISSWLAWYQQKPGKAPKLLISGATSLETGVPSRFSGSGSGLEYTLTISSLQPDDFATYYCQQYWNSPFTFGQGTKLEIK
notes: human IgG1 format; VK4 has the LCDR1 of the top human germline hit
Consider B5, for which the binding result in experiment [6] is on record as “no binding (tested: 5 nM)”.

B6: humanized 03A01-VH2-VK4 (antibody, human IgG1, V domains shown)
VH: B5 VH with T25S, E45G, T93V
VL: B5 VL
notes: as for B5
On to B6, for which the binding result in [6] is given as “no binding (tested: 5 nM)”.

B7: humanized 03A01-VH4-VK4 (antibody, human IgG1, V domains shown)
VH: B5 VH with T25S, E45G, M49I, N59Y, R65K, I68V, T93V
VL: B5 VL
notes: as for B5
With B7, the binding result in experiment [6] is listed as “no binding (tested: 5 nM)”.

B8: humanized 03A01-VH3-VK4 (antibody, human IgG1, V domains shown)
VH: B5 VH with T25S, E45G, R65K, I68V, T93V
VL: B5 VL
notes: as for B5
For the molecule B8, the binding result in experiment [6] is “no binding (tested: 5 nM)”.

B9: 05F10 (antibody, V domains shown)
VH: EVQLVESGGGLVKPGGSLKLSCAASGFTFSSFAMSWVRQTPAKRLEWVATISSGDLSANYPDTVKGRFTISRDNAKNTLYLQMSSLRSEDTAMYYCTRPPFYFSNDWFAYWGQGTLVTVSA
VL: DVVMTQTPLSLPVSLEDQASISCRSSQSLEHSNGNTYLHWYLQKPGQSPRLLIYKVSNRFSGVPDRFSGSGSGTDFTLKISRVEAEDLGVYFCSQSTHVPFTFGSGTKLEIK
notes: Recombinantly produced murine anti-CD8 IgG
B9: the Kd in experiment [3] was 0.242 nM; in experiment [5], 39.8 nM.

B10: Murine 02A01 (antibody, V domains shown)
VH: EVQLQQSGPELVKPGASLKISCKASGYTFTDFTMHWVKQSHGKSLEWIGLVNPNNGGNIYNQNFKGKATLTVDTSSSTAYMELRSLTSEDSSVYYCGRVPLYTSHGMDYWGQGTSVTVSS
VL: DIVLTQSPAFLAVSLGQRATISCRASESVDSYDINSMHWYQQKPGQPPKLLIYRASHLQSGIPARFSGSGSRTDFTLTINFVEADDVATYYCQQSNEDPLTFGAGTKLELK
notes: Recombinantly produced IgG; also called 02-parental; 02-Parent
In the case of B10, the “Fold Change to Parental Apparent KD” value in experiment [7] is 1 fold. In experiment [7], the “Maximum CD8+ T cell Binding (MFI)” value was 2900 MFI. Moreover, the Kd in experiment [3] came to 0.047 nM; in experiment [9] it was 0.057 nM; in experiment [5] it was 0.075 nM; with human CD8α/β [10], 9.29 nM. In the experiment with human CD8α/β [8], the “Fold Change to Parental Calculated KD” value was 1 fold.
